The text below walks through data of US20050130898A1 (HIDECHIKA OKADA, published 2005).

Bridge positions count the residues as written; N and C are the ends. Ends that are not written are not given here. I, II: the chains in the order shown.

In data set [1] the target is T1, CPI-2KR (linear 9-mer peptide Cys-Lys-Pro-Ala-Lys-Asn-Ala-Arg-Cys).
T1 chain: CKPAKNARC

Data set [2] deals with T2, Carboxypeptidase R (CPR) (human, UniProt Q96IY4 115-423).
T2 sequence (looked up): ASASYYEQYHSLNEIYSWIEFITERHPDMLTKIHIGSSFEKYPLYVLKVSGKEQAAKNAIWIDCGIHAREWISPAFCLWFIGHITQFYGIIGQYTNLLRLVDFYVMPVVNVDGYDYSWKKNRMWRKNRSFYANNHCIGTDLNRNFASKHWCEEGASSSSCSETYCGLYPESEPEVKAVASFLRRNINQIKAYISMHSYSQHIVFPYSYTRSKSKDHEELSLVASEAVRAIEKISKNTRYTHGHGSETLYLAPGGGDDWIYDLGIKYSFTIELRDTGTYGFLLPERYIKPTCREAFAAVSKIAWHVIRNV
The data set is described as follows: cell-based or functional assay.

Data set [3] addresses T2, Carboxypeptidase R (CPR). Description: enzyme kinetics, Ki against that of PCI. As for the experimental part: (§1) The reduced inhibitory activity of this PCI-derived peptide may be attributed to the absence of two of the three disulfide bridges founds in wild type PCI, effectively resulting in increased mobility of all residues.
(§2) The activity of the CPR inhibitors was determined against purified CPR using hippuryl-L-arginine as the substrate. The peptides PCI-2K-R, CPI-2KR, PCI (500, 250/125/62.5, 50 mg/ml, respectively) or Tris-HCl buffer (50 mM; pH 7.5) were added to active CPR (40-320 mg/ml) at a 1:7 ratio. After thorough mixing, […] was incubated with various concentrations of hippuryl-L-arginine (1.2-6.0 mM), for 15 minutes at 37° C. The reaction was stopped with the addition of sodium phosphate buffer ([…]; 0.25 M), immediately followed by 3% cyanuric chloride in 1,4-dioxane ([…]). After mixing well, the generation of hippuric acid was determined by measuring the OD at 405 nm on a SpectraMAX 250 Microplate Spectrophotometer (Molecular Device Corporation, Sunnyvale, Calif., USA). Hippuric acid (0-2.0 mM) in Tris buffer was used as the standard.
(§3) A kinetics analysis of the CPR-catalysed hydrolysis of hippuryl-L-arginine in the absence and presence of inhibitory molecules was performed. The Lineweaver-Burk reciprocal plot, based on rearrangement of the Henri-Michaelis-Menten equation into a linear form, was applied: […]

The target of data set [4] is T2, Carboxypeptidase R (CPR). Description: enzyme kinetics, CPR hydrolysis of hippuryl-L-arginine, Lineweaver-Burke at 253 nM inhibitor. The method, then:
(§4) In order to gain insight into the inhibitory mechanism of CPI-2KR against CPR, a classical Henri-Michaelis-Menten kinetics analysis was performed. Since the Lineweaver-Burke plot (FIG. 3C) is prone to error, particularly at low concentrations of inhibitor and substrate, the Dixon plot (1/v versus [I]) was employed to evaluate the inhibitory mechanism of CPI-2KR (FIG. 3D). Replotting of the slopes of the Dixon plot against 1/[S] confirmed that CPR-2KR is a competitive inhibitor of CPR given that the line went through the origin (FIG. 3D insert). The Km Kmₐₚₚ and Vmax were determined from the data obtained for no inhibitor and the highest inhibitor concentration (253 nM) from the Lineweaver-Burke plots (FIG. 3E) . These values were in turn used to calculate the dissociation constant of CPI-2KR (Ki).
(§5) The activity of the CPR inhibitors was determined against purified CPR using hippuryl-L-arginine as the substrate. The peptides PCI-2K-R, CPI-2KR, PCI (500, 250/125/62.5, 50 mg/ml, respectively) or Tris-HCl buffer (50 mM; pH 7.5) were added to active CPR (40-320 mg/ml) at a 1:7 ratio. […] After mixing well, the generation of hippuric acid was determined by measuring the OD at 405 nm on a SpectraMAX 250 Microplate Spectrophotometer (Molecular Device Corporation, Sunnyvale, Calif., USA). […]

In data set [5] the target is T2, Carboxypeptidase R (CPR). The data set is described as follows: enzyme kinetics, Ki against that of PCI-2K-R. As for the experimental part: as §4, §5
Data set [6] addresses T2, Carboxypeptidase R (CPR). Description: enzyme kinetics, CPR hydrolysis of hippuryl-L-arginine, competitive inhibition. The method, then: as §1, §2, §3

B1: Carboxypeptidase N (CPN) (protein)
chain 1: CPMGCDCFVQEVFCSDEELATVPLDIPPYTKNIIFVETSFTTLETRAFGSNPNLTKVVFLNTQLCQFRPDAFGGLPRLEDLEVTGSSFLNLSTNIFSNLTSLGKLTLNFNMLEALPEGLFQHLAALESLHLQGNQLQALPRRLFQPLTHLKTLNLAQNLLAQLPEELFHPLTSLQTLKLSNNALSGLPQGVFGKLGSLQELFLDSNNISELPPQVFSQLFCLERLWLQRNAITHLPLSIFASLGNLTFLSLQWNMLRVLPAGLFAHTPCLVGLSLTHNQLETVAEGTFAHLSNLRSLMLSYNAITHLPAGIFRDLEELVKLYLGSNNLTALHPALFQNLSKLELLSLSKNQLTTLPEGIFDTNYNLFNLALHGNPWQCDCHLAYLFNWLQQYTDRLLNIQTYCAGPAYLKGQVVPALNEKQLVCPVTRDHLGFQVTWPDESKAGGSWDLAVQERAARSQCTYSNPEGTVVLACDQAQCRWLNVQLSPQQGSLGLQYNASQEWDLRSSCGSLRLTVSIEARAAGP
chain 2: VTFRHHRYDDLVRTLYKVQNECPGITRVYSIGRSVEGRHLYVLEFSDHPGIHEPLEPEVKYVGNMHGNEALGRELMLQLSEFLCEEFRNRNQRIVQLIQDTRIHILPSMNPDGYEVAAAQGPNKPGYLVGRNNANGVDLNRNFPDLNTYIYYNEKYGGPNHHLPLPDNWKSQVEPETRAVIRWMHSFNFVLSANLHGGAVVANYPYDKSFEHRVRGVRRTASTPTPDDKLFQKLAKVYSYAHGWMFQGWNCGDYFPDGITNGASWYSLSKGMQDFNYLHTNCFEITLELSCDKFPPEEELQREWLGNREALIQFLEQVHQGIKGMVLDENYNNLANAVISVSGINHDVTSGDHGDYFRLLLPGIYTVSATAPGYDPETVTVTVGPAEPTLVNFHLKRSIPQVSPVRRAPSRRHGVRAKVQPQARKKEMEMRQLQRGPA
Consider B1, for which the “CPN-catalysed hydrolysis of hippuryl-L-arginine” value in data set [1] is reported as “CPI-2KR did not exhibit any inhibitory activity against CPN at 506 nM”.

B2: CPI-2KR (linear 9-mer peptide Cys-Lys-Pro-Ala-Lys-Asn-Ala-Arg-Cys) (peptide)
peptide: CKPAKNARC-NH2
modifications: cysteine pairing not given here
notes: Linear form, no disulfide between the terminal Cys residues
As to B2, in data set [2], the “effective inhibitory concentration relative to PCI (fold)” value was 10 fold and the “effective inhibitory concentration, TM-induced retardation of t-PA-induced fibrinolysis” value is 126 nM. In data set [3], the “fold higher Ki than that of PCI” value was 6 fold. Affinity in data set [4] was put at a Ki of 8.8 nM. Also, in data set [5], the “fold stronger binding affinity than PCI-2K-R” value was approximately 46 fold.

B3: Carboxypeptidase R (CPR) (protein)
chain: T2 sequence (looked up)
Take B3: in data set [1], the “Dixon plot and slope replot, CPR-catalysed hydrolysis of hippuryl-L-arginine” value was “confirmed that CPR-2KR is a competitive inhibitor of CPR”.

B4: PCI-2K-R (heterodimer of PCI-2K and PCI-R joined by a disulfide bond) (peptide)
chain 1: NKPCKTHDD-NH2
chain 2: QACWNSART-NH2
modifications: disulfide I:4-II:3; N-terminus assumed
SMILES: C[C@H](NC(=O)[C@H](CO)NC(=O)[C@H](CC(N)=O)NC(=O)[C@H](Cc1c[nH]c2ccccc12)NC(=O)[C@H](CSSC[C@H](NC(=O)[C@@H]1CCCN1C(=O)[C@H](CCCCN)NC(=O)[C@@H](N)CC(N)=O)C(=O)N[C@@H](CCCCN)C(=O)N[C@H](C(=O)N[C@@H](Cc1c[nH]cn1)C(=O)N[C@@H](CC(=O)O)C(=O)N[C@@H](CC(=O)O)C(N)=O)[C@@H](C)O)NC(=O)[C@H](C)NC(=O)[C@@H](N)CCC(N)=O)C(=O)N[C@@H](CCCNC(=N)N)C(=O)N[C@H](C(N)=O)[C@@H](C)O
notes: also called CPI-2K-R (label in claim 5)
With B4, the Ki (as a rule, a measure of affinity in units of concentration, obtained from inhibition or displacement) in data set [6] was 407 nM. Moreover, in data set [3], the “fold lower inhibitory activity compared to PCI” value was 290 fold.
With QQHADPICNKPCKTHDDCSGAWFCQACWNSARTCGPYVG (other, UniProt P01075 1-39, looked up, disulfide 12-27, 18-34, 8-24, mature) [potato carboxypeptidase inhibitor (PCI)], the affinity in data set [6] corresponds to a Ki of 1.4 nM. Moreover, the “reversal of TM-induced suppression of t-PA-induced fibrinolysis in human plasma” value in data set [2] is 12 nM.
